Assay results: the nanobody polyreactivity screen of Harvey et al. (2022)

Assay: yeast display, Sf9 membrane polyspecificity reagent, FACS + sequencing; frameworks hold sequencing errors
Method in brief: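 Galactose induction of a Saccharomyces cerevisiae BJ5465 synthetic nanobody display library ran 36–48 hours. The cells were then stained for 1 hour at 4 °C with 10% biotinylated, detergent-solubilized Sf9 membrane reagent, pulled down on streptavidin microbeads and FACS-sorted into low and high (top ~1%) gates on expression and reagent-binding fluorescence. Labels for polyreactivity follow the gate of origin.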

Sequence	polyreactivity (PSR sort gate)
QVQLVESGGGLVQAGGSLRLSCAASGRRFVKYAMGWYRQAPGKERELVAAITKSGSSTYYSDSVKGRFTISRDNAKNTVYLQMNSLKPEDTAVYYCAALTISRSRTGYYWGQGTQVTVSS	low polyreactivity
QVQLVESGGGLVQAGGSLRLSCAASGFTFWPNAMGWYRQAPGKERELVAAINWSGGSTYYADSVKGRFTISRDNAKYTVSLQKNSLKPEDTAVYYCAADYVTNITFDGFNKYDYWGQGTQVTVSS	low polyreactivity
QDQLVESGGGLVQAGGSLRLSCAASGSTFGYYAMGWYRQAPGKERELVAAITSGASTNYADSVKGRFTISRDNAKNTVYLQMNSLKPEDTAVYYCAAGFQTRTPLNEFDYWGQGTQVTVSS	low polyreactivity
QVQLVESGGGLVQAGGSLRLSCAASGITFPSYVMGWYRQAPGKEREFVAAITGSAGSTYYADSVKGRFTISRDNAKNTVYLQMNSLKPADTAVYYCAARVRYVNPKYYYWGQGTQVTVSS	high polyreactivity
QVQLVESGGGLVQAGGSLRLSCAASGRIFYSYAMGWYRQAPGKERELVAGINWRGSNTYYADSVKGRFTISRDNAKNTVYLQINSLKPEDTAVYYCKAGRRQDYRYNYWGQGTQVTVSS	high polyreactivity
QVQLEDSGGGLVQAGGRLRLSCAASGYIFSDYAMGWYRQAPGKERELVADIRARGGSTYYADSVKGRFTISRDKAQNTVYLQMNSLKPEDTAVYYCNVEDPFYSGVVEFDYWGQGTQVTVSS	low polyreactivity
QVQLVESGGGLVQAGGSLRLSCAASGRIFAYYAMGWYRQAPGKERELVATINYSGTSTYYADSVKGRFTISRDNAKNTVYLQMNSLKPEDTAFYYCAADLTSRLLWYHIERFDYWGQGTQVTVSS	high polyreactivity
QVQLVESGGGLVQAGGSLRLSCAASGRTFRYYAMGWYRQAPGKEREFVAAITSRSSRTYYADSVKGRFTISRDTAKNTVYLQMNSLKPEDTAVYYCARGSELGYYAWVYYWGQGTQVTVSS	high polyreactivity
QVQLVESGGGLVQAGGSLRLGCAASGITFTPYAMGWYRQAPGKERELVAAISWRGGSTYYADSVKGRFTISRDNAKNTVYLQMNSLKPEDTAVYFCAKDGRGYGRYSRYYTGDYWGQGTQVTVSS	low polyreactivity
QVQLVESGGGLVQAGGSLRLSCAASGSTFWGYAMGWYRQAPGKERELVATINQSAGSTYYADSVKGRFTISRDNAKNTVYLQMNSLKPEDTAVYYCAAEARVQFSYDYWGQGTQVTVSS	low polyreactivity
QVQLVESGGGLVQAGGSLRLSCAASGIIFRWYTKGWSRPAPGKERELVAAINYSSGDTYADSEKGRFTISRDNAKNTVYLQMNILKPEDTAVYYCAAEDPEYATYWYKYGYWGQGTQVNVSS	low polyreactivity
QVQLVESGGGLVQAGGSLRLSCAASGRILHRYVMGWNRQAPGKERELVAAISSGGSTTYADSVKGRFTISRDNAKNTVYLQMNSLKPEATAVYYCAKYSFWRTSRMDFWGQGTQVTVSS	low polyreactivity
QVQLVESGGGLVQAGGSLRLSCAASGSTFYVYAMGWYRQAPGKERELVAAITSGTSTYYADSVKGRFTISRDNAKNTVYLQMNSLKPEDTAVYYCAAYSYYYRFPYYYWGQGTQVTVSS	high polyreactivity
QVQLEESGGGLVQAGASHRLSCAASGITFYWYAMGSYRQAPGKERELVAGISQSGSLTYYADSVKRRFTISRDNAKNTVYLQMKSLKPEDSAVYYCAARVRWSPSRTFEYWGQGSQVTVSS	high polyreactivity
QVQLVESGGGLVQAGGSLRLICAASGSTFRWNALRWYRQAPGKERELVAAITWSGGSTYYADSVKVRFTISRDNAKNTVYVQMNSLKPEDTAVYYCNACGLFQYDSWGQGTKVTVSS	low polyreactivity
QVQLVESGGGLVQAGGSLRLSCAASGSIFVPYAMGWYRQAPGKERELVAAISSRGGRTYYADSVKGRFTISRDNAKNTVYLQMNSLKPEDTAVYYCNKTAGSHIPRLEYWGQGTQVTVSS	low polyreactivity
QVQLVESGGGLVQAGGSLRLSCAASGGTFVSYALGWSRQAPGKERELVAAITYSGGSTYYADSVKGRFTISRDTAKNTVYLQMNSLKPEDTAVYYCAADLGRNLLHTYYYWGQGTQVTVSS	low polyreactivity
QVQLVESGGGLVQAGGSLRLSCAASGIIFSQYAMGWYRQAPGKERELVAGITRSGGSTYYADSVKGRFSISRDNAKNTVYLQMNSLKPDDTAVYYCAAVQRYEYGYWGQGTQVTVSS	high polyreactivity
QVQLVESGGGLVQAGGSLRLSCAATGRTFYVNAMGWYRQAPGLEREFVARITSGGSTYYADSVKGRFTISPDKAKNTVYVQKNSLKPEDTAVYYCAADYVSLSVFSYCAWYDYWGQGTQVTVSS	low polyreactivity
QVQLVESGGGLVQAGGSLRLSCAASGSSFNRYAMGWYRQAPGKERELVAGISYRGGTYYADSVKGRFTISRDNAKNTVYLQMNSLKPEDTAVYYCNVVRRGTTSYDDYDYWGQGTQVTVSS	high polyreactivity
QVQLVESGGGLVQAGGSLRLSCAASGRIFTSYAMGWYRQAPGKERELVASITSGGRTDYADSVKGRFTISRDNAKNTVYVQMNSLKPEDTAVYYCNVGTRRALYYPYRPGRYDYWGQGTQVTVSS	low polyreactivity
QVQLVESVGGLVQAGGSLRLSCAASGRTFGRYAMGWDRQAPGKERELVAAISWSGATTYYADSVKGRFTISRDNAKNTVYLQMNSLKPEDTAVYYCAARFRRGITYEYWGQGTQVTVSS	high polyreactivity

Sequence	polyreactivity (PSR sort gate)
QVQLVESGGGLVQAGGSLRLSCAASGSIFSPYAMGWYRQAPGKERELVAAITWSGGSTYYADSVKGRFTISRDNAKNTVYLQMNSLKPEDTAVYYCAATYYVNAWRYYYWGQGTQVTVSS	high polyreactivity
HVHLVESGGGLVQAGGSLRLSCAASARTFWRYAMGRKRQAPGKERELVAAISVSGGTTYYADAVKGRFTISRDNAQNTVYLQMISLKPEATAVYYCAARYWHSYGYWGQGTQVTVSS	high polyreactivity
QVQLVESGAGLVQAGGSLRLICAASGFIFADYAMGWYRQAPGKERELVAAITSSGSRTYYADSVKGRFTISRDNAKNTVYLQMNSLKPEDTAVYYCAVRGVYYYHFAFDYWGQGTQVTVSS	high polyreactivity
QVQLVESGGGLVQAGGSLRLSCAASGSTFYSNAMGWYRQAPGKERELVAGISGSGGSSYYADSVKGRFTFSRDNAKNTVKLQMNSLKPEDTAVYYCNARKTRSYFRFDSWGQGTQVTVSS	low polyreactivity
QVQLVESGGGLVQAGGSLRLSCAASGSIFTVYGMGWYRQAPGKERELVAAISRSGGSTYYADSVKGRFTISRDNAKNTVYLQMNSLKPEDTAVYYCNADLVYNTLIYSGGDEYDYWGQGTQVTVSS	high polyreactivity
QVQLVESGGGLVQAGGSLRLICAASGVNAMGWYRQAPGKEREFVAAITSIGGSTYYADSVKGRFTISRDNAKNSVYLQMNSLKPEDTAVYYCNTDRGPVKVSPLYESWGQGTQVTVSS	low polyreactivity
QVQLVESGGGLVQAGGSLRLSCAASGFTFPYNDMGWYIQARGKEREFVAAISRSGTRTYYADSVKGRFTISRDNAKHTVYLQMNSLKPEDTAVYYCNARAAGYARLGPGFDYWGQGTQVTVSS	high polyreactivity
QVQLVESGGGLVQAGGSLRLSCAASGFTFWFNAMGWYRQAPGKEREFVATISYSGASTYYADSVKGRFTISRDNAKNTVYLQMNSLKPEDTAVYYCAAANYDFYAFDSTYRYNYWGQGTQVTVSS	low polyreactivity
QVQLVESGGGLVQAGGSLRLSCAASGRIFRYYAMGWYRQAPGKERELVAAISRGGSTNYADSVKGRFTISRDNAKNTVYLQMNSLKPEDTAVYYCAAVYHSRVWYGYDSKFEYWGQGTQVTVSS	high polyreactivity
QVQLVESGGGLVQAGGSLRLSCAASGSTLYHYDMGWYRQAPGKERELVAAITTSGDSTYYADSVKGRFTISRDNAKNTVYLQMNSLKPEDTAVYYCNADVFKTVFYIDRYYYWGQGTQVTVSS	low polyreactivity
QVQLVESGGGLVQAGGSLRLSCAASGRTFSGYAMGWYRPAPGKERELVAAITSGGNTYYADSVKGRFTISRDNAKNTVYFQMNILKPEDTAVYYCATVYADESGIEGYSWGQGTQVTVSS	low polyreactivity
HEQLVESGGGLVQAGGSLRLICAASGRIFPRYAMGRYRQAPGKEMELVAAITKRDGSTYYADSVKGRFTISRDNAKNTVYLQMNSLKPEDSAVYYCATRRLYSKSWYYYWGQGTQVTVSS	high polyreactivity
QVQLVESGGGLVQAGGSLRLSCAASGRTFYANAMGWYRQAPGKERELVAAISWGGGSTYYADSVKGRFTISRDNAKNTVYLQMNSLKPEDTAVYYCNADLGRATFYQRVFIERGGYWGQGTQVTVSS	low polyreactivity
QVQLVESGGGLVQAGGSLRLSCAASGYTFGYYAMGWYRQAPGKERELVAAISSGGSTYYADSVKGRFTISRDNAKNTVYLQMNSLKPEDTAVYYCAVVRYLGDRGMNYWGQGTQVTVSS	low polyreactivity
QVQLVESGGGLVQAGGSLRLSCAASGLTFGRYAMGWYIQATGKERQLVASISQRGGSTYYADSVKGRFTISRDNAKNTVYLQMNSLKPEDTAVYYCNARVRDIYRYSMDSWGQGTQVTVSS	low polyreactivity
QVQIVESGGGLVQAGGSLRLSCAASGSISVANAMGWYRQAPGKERELVAAITDSGDDTYYADSVKGRFTISRDNAKNTVYFQMNSLKPEDTELYYCAVEAWSVPPYDYWGQGTQVTVSS	low polyreactivity
QVQLVESGGGLVQAGGSLRLSCAASGFIIYTYAMGWYRQAPGKERELVAAISRGGRTNYADSVKGRFTISRDNAKNTVYLQMNSLKPEDTAVYYCASSYSHRYDYWGQGSQVTVSS	high polyreactivity
QVQHVESGGGLVQAGGSLRLSCAASGSTFTTNAMGWYRQAPGKERELVAAITASGGRTYYADSVKGRFTISRDNAKNTVYLQMNSLKPEDTAVYYCAADSGNEYDYWGQGTQVTVSS	low polyreactivity
QVQLVESGGRLVQAGGSLRLSGAASGSTIQTNVMGWYRQAPGKERELLAAISSGGSTNYADSVKGRFTISRDNAKNNVYLQMNSLKPEDTADYYCAKRWPYFRRGKDGYCGQGTQVTVSS	low polyreactivity
QVQLVESGGGLVQAGGSLRLSCAASGSTFYYYAMGWYRQAPGKERELVAAIDWSGESTYYADSVKGRFTISRDNAKNTVYLQMNSLKPEDTAVYYCAADLGYPWGYVLFYKQSFSYYYWGQGTQVTVSS	low polyreactivity
QVQLVESGGGLVQAGGSLRLSCAASGSIFFGYAMGWYRQAPGKEREFVAAITASGVRTYYADSVKGRFTISRDNAKNTVYLQMNSLKPEDTAVYYCAARIGTGVLPARGAKSHMDYWGQGTQVPVSS	low polyreactivity
